Assays:
Test in all cases: FRET or BRET; FLIM-FRET, Cerulean (donor) and mOrange (acceptor) fusions co-expressed in N. benthamiana leaves, two days post infiltration; Cerulean fluorescence lifetime, multiphoton excitation at 810 nm
[1] = biological target: NFR1:Cerulean (Lotus japonicus) (UniProt Q70KR8)
[2] = biological target: LjSYMREM1:mOrange (full length) (Lotus japonicus)
[3] = biological target: LjSYMREM1C:mOrange (Lotus japonicus)

UniProt Q70KR8, sequence (Q70KR8 entry or part of it): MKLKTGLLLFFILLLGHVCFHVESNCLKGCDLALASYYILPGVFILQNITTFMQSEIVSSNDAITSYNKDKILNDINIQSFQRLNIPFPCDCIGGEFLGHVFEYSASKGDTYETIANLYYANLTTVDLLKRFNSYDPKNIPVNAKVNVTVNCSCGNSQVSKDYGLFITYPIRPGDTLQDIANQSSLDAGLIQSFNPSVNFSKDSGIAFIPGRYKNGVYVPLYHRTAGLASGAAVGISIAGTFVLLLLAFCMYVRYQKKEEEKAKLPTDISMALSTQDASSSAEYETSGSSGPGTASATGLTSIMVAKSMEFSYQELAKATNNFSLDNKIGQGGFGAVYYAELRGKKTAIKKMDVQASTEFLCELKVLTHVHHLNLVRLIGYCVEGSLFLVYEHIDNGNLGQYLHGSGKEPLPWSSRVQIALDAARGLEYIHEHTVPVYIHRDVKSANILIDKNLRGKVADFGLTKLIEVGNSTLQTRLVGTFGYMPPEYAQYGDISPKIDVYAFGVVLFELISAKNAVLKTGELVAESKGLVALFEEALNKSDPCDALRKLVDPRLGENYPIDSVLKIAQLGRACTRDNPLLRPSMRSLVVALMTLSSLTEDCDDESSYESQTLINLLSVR

Cerulean fluorescence lifetime [1] | FRET efficiency [1] | Cerulean fluorescence lifetime [2] | FRET efficiency [2] | Cerulean fluorescence lifetime [3] | FRET efficiency [3] | Substance
2.09 ns | 4.1% |  |  |  |  | LjSYMREM1N:mOrange (domain or fragment)
 |  | 1.99 ns | 8.8% | 1.97 ns | 9.6% | NFR1:Cerulean (from UniProt Q70KR8 1-621) (receptor)
